Columns and labels:
[1] = tested on: +36 GFP-(GGS)4-ALAL-(GGS)4-Cre-His6
[2] = tested on: +36 GFP-(GGS)4-ALAL-(GGS)4-mCherry-His6
+36 GFP-(GGS)4-ALAL-(GGS)4-mCherry-His6, sequence (chain, as listed by the source): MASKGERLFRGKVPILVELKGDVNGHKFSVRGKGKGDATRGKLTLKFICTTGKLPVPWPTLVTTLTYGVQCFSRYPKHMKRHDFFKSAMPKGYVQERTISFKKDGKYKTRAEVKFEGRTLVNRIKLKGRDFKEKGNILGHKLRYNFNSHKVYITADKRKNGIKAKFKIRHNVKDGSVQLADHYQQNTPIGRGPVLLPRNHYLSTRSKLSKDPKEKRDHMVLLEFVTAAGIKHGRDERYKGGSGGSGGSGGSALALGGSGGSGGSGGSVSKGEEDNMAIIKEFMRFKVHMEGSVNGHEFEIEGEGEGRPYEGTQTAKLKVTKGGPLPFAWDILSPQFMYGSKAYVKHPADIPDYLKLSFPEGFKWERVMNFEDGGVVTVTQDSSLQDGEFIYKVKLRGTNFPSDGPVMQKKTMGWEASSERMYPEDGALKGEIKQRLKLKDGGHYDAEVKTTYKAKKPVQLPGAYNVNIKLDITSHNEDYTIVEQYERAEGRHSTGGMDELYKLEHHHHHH

+36 GFP-(GGS)4-ALAL-(GGS)4-Cre-His6, sequence (chain, as listed by the source): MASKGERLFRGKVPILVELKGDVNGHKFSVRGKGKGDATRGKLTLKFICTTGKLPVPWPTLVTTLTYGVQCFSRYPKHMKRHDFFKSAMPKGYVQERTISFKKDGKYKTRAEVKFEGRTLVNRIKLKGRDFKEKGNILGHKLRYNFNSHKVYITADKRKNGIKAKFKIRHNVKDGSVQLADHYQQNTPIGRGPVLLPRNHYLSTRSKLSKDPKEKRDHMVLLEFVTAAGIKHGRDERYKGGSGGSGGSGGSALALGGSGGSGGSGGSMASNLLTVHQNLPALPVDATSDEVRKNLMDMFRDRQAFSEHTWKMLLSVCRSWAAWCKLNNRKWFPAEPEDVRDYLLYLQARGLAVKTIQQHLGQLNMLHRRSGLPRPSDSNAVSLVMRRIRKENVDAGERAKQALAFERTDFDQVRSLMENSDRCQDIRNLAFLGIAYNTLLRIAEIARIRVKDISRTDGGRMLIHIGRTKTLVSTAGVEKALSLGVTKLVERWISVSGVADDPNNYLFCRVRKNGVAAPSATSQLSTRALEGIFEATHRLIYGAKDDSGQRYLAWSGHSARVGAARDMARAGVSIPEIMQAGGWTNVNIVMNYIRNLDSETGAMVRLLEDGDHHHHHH

cathepsin B from human liver (Sigma)
cleavage of the fusion protein in vitro (gel) [1]: the +36 GFP-Cre fusion was indeed cleaved into two protein fragments with lengths consistent with separated +36 GFP and Cre | cleavage of the fusion protein in vitro (gel) [2]: Cleavage of +36 GFP-mCherry fusion. ... lane 4: +36 GFP-mCherry fusion after treatment with 500 ng cathepsin B for 45 min at 37 °C

— patent publication US20160280748
